The text below walks through data of US20250250357A1 (NANJING ZAIMING PHARMACEUTICAL, published 2025).

The labels stand for the following.
B1: F7.33.24-H2 (scFv, not shown: small tags and cut ends)
scFv: EVQLVQSGAEVKKPGASVKVSCKASGYTFTSYWMHWVRQAPGQRLEWMGNVNPSNGGSNYNEKFKNRVTITVDKSASTAYMELSSLRSEDTAVYYCAPHYIGSRPGFAYWGQGTLVTVSSGGGGSGGGGSGGGGSDIVMTQTPLSLSVTPGQPASISCKASQNVGTNIAWYLQKPGQSPQALIYSASYRYSGVPDRFSGSGSGTDFTLKISRVEAEDVGVYYCQQYNSYPLTFGGGTKVEIK
notes: also called S009-F7.33.24 humanized antibody VH1 + VL2
B2: F7.33.24-H8 (scFv, not shown: small tags and cut ends)
scFv: B1 scFv with R44G
notes: also called S009-F7.33.24 humanized antibody VH2 + VL2
B3: F7.33.24-H11 (scFv, not shown: small tags and cut ends)
scFv: B1 scFv with R44G, G56A
notes: also called S009-F7.33.24 humanized antibody VH2a + VL2
B4: F7.33.24-H5 (scFv, not shown: small tags and cut ends)
scFv: B1 scFv with N55S
notes: also called S009-F7.33.24 humanized antibody VH1a + VL2
B5: F7.33.24-H6 (scFv, not shown: small tags and cut ends)
scFv: B1 scFv with N55S, L172Q
notes: also called S009-F7.33.24 humanized antibody VH1a + VL3
B6: F7.33.24-H9 (scFv, not shown: small tags and cut ends)
scFv: B1 scFv with R44G, L172Q
notes: also called S009-F7.33.24 humanized antibody VH2 + VL3
B7: F7.33.24-H3 (scFv, not shown: small tags and cut ends)
scFv: B1 scFv with L172Q
notes: also called S009-F7.33.24 humanized antibody VH1 + VL3
B8: F7.33.24-H12 (scFv, not shown: small tags and cut ends)
scFv: B1 scFv with R44G, G56A, L172Q
notes: also called S009-F7.33.24 humanized antibody VH2a + VL3

Positions count from the first letter of the chain named.

T4 sequence (Q13421 other isoform, or with tags, fused parts or gaps): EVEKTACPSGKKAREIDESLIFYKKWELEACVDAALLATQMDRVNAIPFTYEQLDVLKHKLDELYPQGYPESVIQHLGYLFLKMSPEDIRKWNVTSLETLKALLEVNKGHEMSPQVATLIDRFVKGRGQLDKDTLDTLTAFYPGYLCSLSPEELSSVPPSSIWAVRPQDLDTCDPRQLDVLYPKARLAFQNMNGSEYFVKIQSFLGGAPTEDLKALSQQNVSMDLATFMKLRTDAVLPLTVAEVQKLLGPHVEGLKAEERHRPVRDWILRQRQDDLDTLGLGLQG
T3 sequence (Q13421 other isoform, or with tags, fused parts or gaps): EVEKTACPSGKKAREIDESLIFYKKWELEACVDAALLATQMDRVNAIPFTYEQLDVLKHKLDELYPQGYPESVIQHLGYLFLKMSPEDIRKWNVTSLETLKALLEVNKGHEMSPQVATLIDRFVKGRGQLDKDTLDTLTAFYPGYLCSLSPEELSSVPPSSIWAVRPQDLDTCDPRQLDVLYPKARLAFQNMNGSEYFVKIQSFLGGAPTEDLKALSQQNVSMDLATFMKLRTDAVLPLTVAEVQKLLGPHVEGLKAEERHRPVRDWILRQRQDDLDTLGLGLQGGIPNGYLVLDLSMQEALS

The first test has as its target T1, monkey MSLN on HEK293T-monkey MSLN recombinant cells (monkey).
T1 construct: Full-length precursor as transfected; processing on the cell is not described; also called HEK293-monkey MSLN
T1 chain: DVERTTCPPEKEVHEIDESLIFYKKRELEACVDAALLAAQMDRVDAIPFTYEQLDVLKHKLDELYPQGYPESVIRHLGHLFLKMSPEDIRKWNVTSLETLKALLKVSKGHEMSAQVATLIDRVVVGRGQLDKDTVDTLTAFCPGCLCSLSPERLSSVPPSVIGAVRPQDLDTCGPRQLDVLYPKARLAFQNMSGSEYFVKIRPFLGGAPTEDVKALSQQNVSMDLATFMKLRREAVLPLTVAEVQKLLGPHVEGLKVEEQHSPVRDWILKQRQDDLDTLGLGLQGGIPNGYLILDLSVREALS
Briefly: FACS, HEK293T-monkey MSLN cells. (A flow cytometer gives signals particle by particle.)
What is called EC50 is the concentration that produces a half-maximal response. Turning to B1, the EC50 came to 5.11 nM and the Maximum_MFI came to 8170 MFI.
For the molecule B2, the concentration giving a half-maximal response (EC50) was determined as 4.6 nM and the Maximum_MFI was 8000 MFI.
The corresponding values for B3 are 1.46 nM and 8580 MFI.
As to B4, the 50% effective concentration (EC50) amounted to 4.98 nM and the Maximum_MFI was 8430 MFI.
Consider B5, for which the EC50 worked out at 3.54 nM and the Maximum_MFI was determined as 8440 MFI.
As to B6, the concentration giving a half-maximal response (EC50) was 4.08 nM and the Maximum_MFI was 8080 MFI.
B7: the concentration for a half-maximal effect (EC50) worked out at 5.33 nM and the Maximum_MFI is 8310 MFI.
The corresponding values for B8 are 5.07 nM and 7940 MFI.

The target in another test is T2, human MSLN-R3 on HEK293T-hMSLN-R3 recombinant cells (human, UniProt Q13421 487-606).
T2 construct: the C-terminal limit is uncertain; also called human MSLN-R3 membrane protein
T2 sequence (Q13421 495-614): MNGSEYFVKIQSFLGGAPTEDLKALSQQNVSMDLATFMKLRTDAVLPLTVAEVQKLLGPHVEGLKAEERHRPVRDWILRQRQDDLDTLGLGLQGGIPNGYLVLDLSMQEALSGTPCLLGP
Briefly: FACS, HEK293T-hMSLN-R3 cells.
Consider B1, for which the EC50 is 1.21 nM and the Maximum_MFI came out at 1520 MFI.
With B2, the concentration for a half-maximal effect (EC50) is 1.52 nM and the Maximum_MFI is 1400 MFI.
Regarding B3, the EC50 turned out to be 0.42 nM and the Maximum_MFI worked out at 1590 MFI.
Consider B4, for which the EC50 turned out to be 1.35 nM and the Maximum_MFI came out at 1470 MFI.
The corresponding values for B5 are 1.01 nM and 1540 MFI.
On to B6, for which the half-maximal effective concentration (EC50) came to 1.29 nM and the Maximum_MFI came to 1470 MFI.
B7: the 50% effective concentration (EC50) is 2.89 nM and the Maximum_MFI is 1970 MFI.
For B8, the 50% effective concentration (EC50) was 1.27 nM and the Maximum_MFI is 1330 MFI.

Another test concerns the target T3, human MSLN on OVCAR3 tumor cells (human, UniProt Q13421 296-598).
T3 construct: whole, on cells; also called human MSLN protein
Briefly: FACS, OVCAR3 cells.
The molecule B1 registered an EC50 of 2.07 nM and a Maximum_MFI of 2190 MFI.
In the case of B2, a half-maximal effect (EC50) was put at 1.8 nM and the Maximum_MFI came out at 2250 MFI.
The molecule B3 showed a half-maximal effective concentration (EC50) of 2.25 nM and a Maximum_MFI of 2130 MFI.
As to B4, the half-maximal effective concentration (EC50) came out at 2.78 nM and the Maximum_MFI was determined as 2420 MFI.
B5: it took 1.08 nM to reach a half-maximal effect (EC50) and the Maximum_MFI was found to be 2300 MFI.
As for B6, the response was half-maximal at 2.6 nM (EC50) and the Maximum_MFI came to 2190 MFI.
The molecule B7 gave an EC50 of 2.06 nM and a Maximum_MFI of 2370 MFI.
For B8, in that order: 0.92 nM and 2200 MFI.

The next test has as its target T4, human MSLN-hFc recombinant protein (human, UniProt Q13421 296-580).
T4 construct: Captured by an anti-human IgG antibody on the chip; also called human MSLN protein; Acro MSN-H5253
Briefly: SPR (Biacore 8K), MSLN-hFc captured, antibody injected. For orientation: SPR reads the build-up and loss of mass on a sensor chip optically.
The term Kd denotes the equilibrium constant for the complex coming apart. One may read the koff as the first-order rate constant of dissociation. One may read the kon as a measure of how fast the partners come together. As for B1, the Kd turned out to be 1.83 nM, the koff turned out to be 0.000466 s⁻¹ and the kon amounted to 254000 M⁻¹ s⁻¹.
For B2, in that order: 1.32 nM, 0.000529 s⁻¹ and 402000 M⁻¹ s⁻¹.
For B4, the dissociation constant Kd was determined as 1.06 nM, the koff was 0.000435 s⁻¹ and the on-rate constant (kon) was found to be 409000 M⁻¹ s⁻¹.
